Results from the nanobody polyreactivity screen of Harvey et al. (2022).

assay: yeast display, Sf9 membrane polyspecificity reagent, FACS + sequencing; frameworks hold sequencing errors
How it was run: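 Genes from sorted yeast were amplified by colony PCR, read by MiSeq 2 × 250 sequencing and filtered on CDR length. These cells carried a synthetic nanobody library in Saccharomyces cerevisiae BJ5465 and were sorted by FACS into low and high (top ~1%) gates on anti-HA and streptavidin fluorescence. Polyreactivity is labelled according to the gate of origin.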

Sequence | polyreactivity (PSR sort gate)
QVQLVESGGGLVQAGGSLRLSCAASGSTFNSYAMGWYRQAPGKERELVAAITSSVGSTYYADSVKGRFTISRDNAKYTVYLQMNSLKPEDTAVYYCAADYFSYWYFSGYDYWGQGTQVTVSS | low polyreactivity
QVQLVESGGGLVQAGGSLRLSCAASGSTFNVYAMGWYRQAPGKERELVASIRTSGTRTYYADSVKGRFTISRDNAKNTVYLQMNSLKPEDTAVYYCNARYYSNLRRHGGYWGQGTQVTVSS | high polyreactivity
QVQLVESGGGLVQAGGSLRLSCAASGSTFNYYAMGWYRQAPGKERELVAGITWRGRTYYADSVKGRFTISRDNAKNTVYLQMNSLKPEDTAVYYCAARQGTYGYWGQGTQVTVSS | high polyreactivity
QVQLVESGGGLVQAGGSLRLSCAASGSTFPDNAMGWYRQAPGKERELVATITSGASTYYADSVKGRFTISRDNAKNTVYLQMNSLKPEDTAVYYCAVDVYFYYRHYGYWGQGTQVTVSS | low polyreactivity
QVQLVESGGGLVQAGGSLRLSCAASGSTFPDYSKGWYRQAPGKERLLVADITYGGSSTYYADSVKGRFTISSDNAKNTVYLQMNSLKPDDTAVYYCAADTDYYTLIRSVLAYDYWGQGTQVTVSS | low polyreactivity
QVQLVESGGGLVQAGGSLRLSCAASGSTFPDYVMGWYRQAPGKERELVAAISSIGGSTYYADSVKGRFTISRDKAKNTVYLQMNSLKPEDTAVYYCAAENSYFYPFDYWGQGTQVTVSS | low polyreactivity
QVQLVESGGGLVQAGGSLRLSCAASGSTFPFNAMGWYRQAPGKERELVAGIRSRGGSTYYADSVKGRFTISRDNAKNTVYLQMNSLKPEDTAVYYCAKVYKDRDDLFYYWGQGTQVTVSS | low polyreactivity
QVQLVESGGGLVQAGGSLRLSCAASGSTFPFYALGWYRQAPGKERELVAVIRGSGGRTYYADSVKGRFTISRDNAKTTVYLQMNSLKPEDTAVYYCAVKLARLYDSGYNYWGQGTQVTVSS | high polyreactivity
QVQLVESGGGLVQAGGSLRLSCAASGSTFPFYAMGWYRQAPGKERELVAAITSGGSTYADSVKGRFTISRDNAKNTVYLQMNSLKAEVTAVYYCAASWPRWWRFGYWGQGTQVSVSS | low polyreactivity
QVQLVESGGGLVQAGGSLRLSCAASGSTFPFYAMGWYRQAPGKERELVAAITSGGSTYADSVKGRFTITRDNAKNTVYLQMNSLKPEDTSVYYCAASWPRWWRFGYWGQGTQVNVSS | low polyreactivity
QVQLVESGGGLVQAGGSLRLSCAASGSTFPGNAMGWYRQAPGKESELVASISGGGDSTYYADSVKGRFTISRDNAKNTVYLQMISLKPEDTAVYYCAADYRQEPGYTGYYYWGQGTQVTVSS | low polyreactivity
QVQLVESGGGLVQAGGSLRLSCAASGSTFPGYAMGWYRQAPGKERELVAAGGSTYYADSVKGRFTISRDNAKNTVYLEMNCLKPEETAVYYCAATWGSVQKGTYYYWGQGTQVTVSS | low polyreactivity
QVQLVESGGGLVQAGGSLRLSCAASGSTFPGYAMGWYRQAPGKERELVAAISASGGSTYYADSVKGRFTISRDNAKNTVYLQMNSLKPEDTAVYYCAKVLSRGASADDYWGQGTQVTVSS | low polyreactivity
QVQLVESGGGLVQAGGSLRLSCAASGSTFPHYAMGWYRQAPGKERELVAAISWSGSSTYYADSVKGRFTISRDNAKNTVYLQMNSLKPEDTAVYYCNILPRRAPQFTYDYWGQGTQVTVSS | high polyreactivity
QVQLVESGGGLVQAGGSLRLSCAASGSTFPINAMGWYRQAPGTERELVAAIDTNTASTYYADSVKGRFTISRDNAKNTVYLQMNSLKPEDTAVYYCAAEEWFYDGNVIYDWGQGTQVTVSS | high polyreactivity
QVQLVESGGGLVQAGGSLRLSCAASGSTFPIYAMGWYRQAPGKERELVAAITRSGGSTNYADSVKGRFTISRDNAKNTVYLQMNSLKPEDTAVYYCNRTRYRSFHYDYWGQGTQVTVSS | high polyreactivity

Sequence | polyreactivity (PSR sort gate)
QVQLVESGGGLVQAGGSLRLSCAASGSTFPKYAMGWYRQAPGKERELVASISVTTGSTYYADSVKGRFTISRDNAKNTVYLQMNSLKPEDTAVYYCAKRTYSRKFRGAYNYWGQGTQVTVSS | high polyreactivity
QVQLVESGGGLVQAGGSLRLSCAASGSTFPKYAMGWYRQAPGKERELVASISVTTGSTYYADSVKGRFTISRDNAKNTVYLQMNSLNPEDTAVYYCAKRTYSRKFRGAYNYWGQGTQVTVSS | high polyreactivity
QVQLVESGGGLVQAGGSLRLSCAASGSTFPLYAMGWYRQAPGKERDLVAAITSGGGNTYYADSVKGRFTISRDNAKITVYLQMNSLKPEDTAVYSCAAVGGYKSYYSYEYDYWGQGTQVTVSS | low polyreactivity
QVQLVESGGGLVQAGGSLRLSCAASGSTFPLYAMGWYRQAPGKERELVAAITSGGGNTYYADSVKGRFTISRDNAKNTVYLQMNRLKPEDTAVYYCAAVGGYKSYYSYEYDYWGQGTQVTVSS | low polyreactivity
QVQLVESGGGLVQAGGSLRLSCAASGSTFPLYVMGWYRQSPGKERELVAAIDWSGGSTYYADSVKGRFTISRDNAKNTVFLQMNSLKPVDTAVYYCNRKRYGYDYEYWGQGTQVTVSS | low polyreactivity
QVQLVESGGGLVQAGGSLRLSCAASGSTFPPNAMGWYRQAPGKERELVAVISYTSGRTYYADSVKGRFTISRDNAKNTVYLQMNSLKPEDTAVYYCNKRVLYRQRGFNYWGQGTQVTVSS | high polyreactivity
QVQLVESGGGLVQAGGSLRLSCAASGSTFPPYAMGWYRQAPGKERELVAAIDWSDGTTYYADSVKGRFTISRDNAKNTVYLQMNSLKPEDTAVSYCSASLSQSEFDYWGQGTQVTVSS | low polyreactivity
QVQLVESGGGLVQAGGSLRLSCAASGSTFPQYAMGWSRQAPGKERELVAAISWSGGRTYYADSVKGRFTISRDNAKNTVYLQMNSLKPEDTAVYYCAATYPGQYGYNYWGQGTQVTVSS | high polyreactivity
QVQLVESGGGLVQAGGSLRLSCAASGSTFPSNAMGGYRQAPGKARELDAAISDSGSTTYYADSVKGRFTISRDNAKNTVYLQMNSLKPEDTAVYYCNADWWQYDFVFWTFGYDDWGQGTQVTLSS | low polyreactivity
QVQLVESGGGLVQAGGSLRLSCAASGSTFPSYAMGWYRQAPGKERELVAAINSGGGTNYADSVKGRFTISRDNAKNTVYFQMNSLKPEDTAVYYCAKSRDDYTNTEGGYWGQGTQVTVSS | low polyreactivity
QVQLVESGGGLVQAGGSLRLSCAASGSTFPTYAMGWSRQAPGKERELVAAIDWSDGSITYYADSVKGRFTISRDNAKNTVFLQLNSLKPEDTAVYYCAKDYSQYGWRYDYWGQGTQVTVSS | low polyreactivity
QVQLVESGGGLVQAGGSLRLSCAASGSTFPTYAMGWYRQAPGKERELVADITWSGGSTYYADSVKGRFTISRDNAKNTVYLQMNSLKPEDTAVYYCAAVFKAGSAYDYWGQGTQVTVSS | high polyreactivity
QVQLVESGGGLVQAGGSLRLSCAASGSTFPVNTMGWYRQAPGKERELVAAITKNGANTYYADSVKGRFTLSRDNAKNTVFLQMNSLKPEDTAVYYCAARYVYGKSYSRWLVELDYWGQATQVTVSS | low polyreactivity
QVQLVESGGGLVQAGGSLRLSCAASGSTFPVYAMGGYRQAPGKERELVAAISLIGGSTYYADSVKGRFTISRDTAKNTVYLQMNSLKPEDTAVYYCNTAVISSPPAIDVLEMDYWGQGTQVTVSS | low polyreactivity
QVQLVESGGGLVQAGGSLRLSCAASGSTFPVYAMGWYRQAPGKERELFAAISRAGSTNYADSVKGRFTISRDNAKNTVYLQMNSLKPEDTAVYYCAARGYLWAGEWYVRRDYWGQGTQVTVSS | high polyreactivity
QVQLVESGGGLVQAGGSLRLSCAASGSTFPVYAMGWYRQAPGKERELVAAISRAGSTNYADSVKGRFTISRDNAKNSVYLQMNSLKPEDTAVYYCAARGYLWAGEWYVRRDDWGQGTQVTVSS | high polyreactivity
